The record followed here is patent US12649783B2, “Anti-MCT1 antibodies and uses thereof” (IMMUNEXT INC., priority 2018, dated 2026).

For one experiment, the system named is Tr1 cells. The experiment in a line: ex vivo Tr1 survival. The format is cell-based, human. The protocol: Humanized NSG mice (treated with anti-MCT1) were sacrificed on d32 or other day specified, single cells suspensions were prepared from spleens, followed by bead-based enrichment of hCD3+ cells. Isolated cells were plated with the analytes (see above table) to access Tr1 survival: […]

The target in another experiment is T1, MCT1 (Homo sapiens, UniProt P53985).
T1 construct: HEK-293 WT cells only express MCT1/CD147 and no other MCTs as measured by RT-PCR; endogenous in cells; host or cells: HEK293T
T1 sequence (P53985 1-500): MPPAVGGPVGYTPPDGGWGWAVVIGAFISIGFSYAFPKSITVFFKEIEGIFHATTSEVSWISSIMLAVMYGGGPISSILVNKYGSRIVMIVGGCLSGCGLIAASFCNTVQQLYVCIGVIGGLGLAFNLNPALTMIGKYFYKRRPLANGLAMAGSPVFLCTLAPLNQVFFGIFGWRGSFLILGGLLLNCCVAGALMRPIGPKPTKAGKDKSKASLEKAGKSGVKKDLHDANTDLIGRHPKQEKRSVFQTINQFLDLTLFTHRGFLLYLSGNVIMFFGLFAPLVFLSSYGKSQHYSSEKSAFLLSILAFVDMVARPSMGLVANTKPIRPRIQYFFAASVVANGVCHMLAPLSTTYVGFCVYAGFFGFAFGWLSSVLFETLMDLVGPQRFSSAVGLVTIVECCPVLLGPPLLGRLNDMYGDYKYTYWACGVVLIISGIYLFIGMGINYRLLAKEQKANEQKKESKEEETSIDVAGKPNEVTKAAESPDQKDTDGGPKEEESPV
The experiment in a line: bromopyruvate toxicity assay (ATPlite). Format: cell-based. On the procedure:
Inhibition of bromopyruvate toxicity. Since MCT1 is the sole transporter necessary for the in vitro efficacy of the anti-cancer toxin bromopyruvate (Reference 66), a second cell-based functional assay was developed to measure the in vitro killing of cells using this toxin at a concentration of 150 μM.
HEK293T cells are pre-treated with anti-MCT1 antibody or small molecular MCT1 inhibitor at 37° C. for 1 hour. Cells are then incubated with a cytotoxic reagent 3-bromopyruvate (3-BrPy) at concentrations that rand from 25 to 500 μM for 2 to 6 hours. ATP from dying cells will be quantified using a commercial viability kit (ATPlite, PerkinElmer) in a 96-well plate and viability measured using luminescence. Reduction of ATP production indicates functionality of the antibody. A positive control antibody is the mouse or chimeric antibody before humanization. A negative control cell line is MCT1/CD147 double knockout 293T cells. Using this assay functional, i.e., antagonistic anti-MCT1 antibodies may be identified.
In general terms: In ATP-based viability assays light output follows the ATP content of the culture.

For the molecule “IL-15: Recombinant Human IL-15 (carrier-free), Biolegend 570304”, the “ex vivo Tr1 survival” value with Tr1 cells was “increased ex vivo Tr1 survival in a dose-dependent manner”.

B1: LM186: chicken anti-human MCT1 antibody; HC/LC SEQ ID NO: 184/189 (antibody)
heavy: AVTLDESGGGLQTPGGGLSLVCKASGFSFSSRGMFWVRQAPGKGLEYVAGIDNDGGYPNYGSAVKGRATISRDNRQSTVRLQLNNLRADDTGTYYCAKGAYGGGWYAASSIDAWGHGTEVIVSS
light: ALTQPSSVSANPGEAVKITCSGGVGQWYGWFQQKAPGSAPVTVIHDNTNRPSDIPSRFSGSKSGSTGTLTITGVQAEDEAVYFCANTYSDGNDAPFGAGTTLTVL
modifications: HC Protein; LC Protein
Turning to B1, the “block of human MCT1 function” value with MCT1 is “block human MCT1 function”.

B2: IL-7: Recombinant Human IL-7 (carrier-free), Biolegend 581904 (protein, UniProt P13232 26-177, looked up)
Interleukin-7: DCDIEGKDGKQYESVLMVSIDQLLDSMKEIGSNCLNNEFNFFKRHICDANKEGMFLFRAARKLRQFLKMNSTGDFDLHLLKVSEGTTILLNCTGQVKGRKPAALGEAQPTKSLEENKSLKEQKKLNDLCFLKRLLQEIKTCWNKILMGTKEH
As to B2, in the experiment with Tr1 cells, the “ex vivo Tr1 survival” value is “increased ex vivo Tr1 survival in a dose-dependent manner”.

B3: LM183: chicken anti-human MCT1 antibody; HC/LC SEQ ID NO: 164/169 (antibody)
heavy: AVTLDESGGGLQTPGGTLSLVCKASGFDFSNYEMLWVRQAPGKGLEYVAGIGDSASYSAYGVAVKGRATISRDNGQSTLRLQLNGLRAEDTGTYYCTKASEGSYWYYEAGGIDTWGHGTEVIVSS
light: ALTQPSSVSANLGGTVKITCSGGGGSYGWYQQKSPGSAPVTVIYDNDKRPSDIPSRFSGSKSGSTATLTITGVRAEDEAVYYCGSAGNSGAFGAGTTLTVL
modifications: HC Protein; LC Protein
As to B3, the “block of human MCT1 function” value in the experiment with MCT1 is recorded as “block human MCT1 function”.
